Data on 2 proteins can be found in patent US20260028608.

Residue numbers refer to the chain shown, from its start.

Series [1] concerns the target IgG in human serum pool from 100 individuals.
The target of series [2] is anti-drug antibodies (ADA) in human serum.

B1: pCART239, a variant IdeZ polypeptide of the invention (protein)
chain: MDDYQRNATEAYAKEVPHQITSVWTKGVTPPEQFTQGEDVIHAPYLAHQGWYDITKAFNGKDDLLCGAATAGNMLHWWFDQNKTEIEAYLSKHPEKQKIIFRNQELFDLKAAIDTKDSQTNSQLFNYFRDKAFPNLSARQLGVMPDLVLDMFINGYYLNVFKTQSTDVNRPYQDKDKRGGIFDAVFTRGNQTTLLTARHDLKNKGLNDISTIIKQELTEGRALALSHTYANVSISHVINLWGADFNAEGNLEAIYVTDSDANASIGMKKYFVGINAHGHVAISAKKIEGENIGAQVLGLFTLSSGKDIWQKLSGGGHHHHHH
With B1, in series [1], the “enzyme concentration at which intact IgG started to be digested, serum pool with 0.1 mg/ml pCART243 (SDS-PAGE)” value was “Intact IgG started to be digested already at 0.03 µg/ml”; the “enzyme concentration at which scIgG are further digested into F(ab')2 and Fc fragments in serum pool (SDS-PAGE)” value was “approximately 1.9 µg/ml of enzyme”; the “enzyme concentration for cleavage from IgG to scIgG in serum pool (SDS-PAGE)” value is given as “approximately 0.9 µg/ml of enzyme”.

B2: pCART243, an inactive variant IdeZ polypeptide (protein)
chain: B1 chain with C66G
Regarding B2, the “restoration of pCART239 IgG cleavage activity in serum by 0.1 mg/ml inactive decoy (SDS-PAGE)” value in series [2] is on record as “should bind the inactivating ADA to the extent that the activity of pCART239 in serum is restored. This was shown to be the case”.
